# According to paper PMC9154745:
# Target: human cannabinoid receptor type 2 (CB2) (human) (UniProt P34972)
# UniProt P34972, sequence (P34972 whole entry): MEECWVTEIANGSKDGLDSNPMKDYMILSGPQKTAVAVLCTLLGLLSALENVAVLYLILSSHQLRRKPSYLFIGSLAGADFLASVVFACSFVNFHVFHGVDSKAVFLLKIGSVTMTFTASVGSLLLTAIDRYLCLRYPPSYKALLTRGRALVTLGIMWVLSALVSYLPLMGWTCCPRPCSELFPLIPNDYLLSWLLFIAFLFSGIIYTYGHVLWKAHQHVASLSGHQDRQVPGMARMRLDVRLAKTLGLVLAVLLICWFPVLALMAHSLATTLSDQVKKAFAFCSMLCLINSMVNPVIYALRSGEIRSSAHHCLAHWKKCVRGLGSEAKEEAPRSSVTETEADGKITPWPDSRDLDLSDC
substance,measurement,value
"osteogenic growth peptide (OGP), the 5-amino-acid cellular activator derived from OGP(1-14) (from UniProt P62805 99-103)","logEC50 of half-maximal inhibition of FSK-stimulated cAMP in CHO-hCB2 cells (bell-shaped dose-response curve, two independent experiments)",-12.1
